The source of these data is PMC10771525 (Communications Biology, 2024).

In one test the target is LTB4R (Homo sapiens, UniProt Q15722). In words: GPCR panel (control), Arrestin, CHO-K1. The format is cell-based. To be noted: reference agonist.
Test [1] concerns MRGPRX2. To be noted: MRGPRX2 recombinantly expressed in HEK293 cells; read-out: EC50, calcium mobilization assays; cited from earlier work. The text has this: Other CXCLs contain sequences that are similar to the proposed pentapeptidic motif, but are either deeply buried in the typical 3D structure of the chemokine, or located near acidic amino acids, that are not tolerated by the negatively charged binding pocket of MRGPRX2 (see sequence alignment in Supplementary Fig. 4 for further information). […] No ...

Another test deals with HTR1E (Homo sapiens, UniProt P28566). In words: GPCR panel (control), Arrestin, U2OS. The format is cell-based. The conditions noted are these: reference agonist.
Chain of HTR1E (P28566 whole entry): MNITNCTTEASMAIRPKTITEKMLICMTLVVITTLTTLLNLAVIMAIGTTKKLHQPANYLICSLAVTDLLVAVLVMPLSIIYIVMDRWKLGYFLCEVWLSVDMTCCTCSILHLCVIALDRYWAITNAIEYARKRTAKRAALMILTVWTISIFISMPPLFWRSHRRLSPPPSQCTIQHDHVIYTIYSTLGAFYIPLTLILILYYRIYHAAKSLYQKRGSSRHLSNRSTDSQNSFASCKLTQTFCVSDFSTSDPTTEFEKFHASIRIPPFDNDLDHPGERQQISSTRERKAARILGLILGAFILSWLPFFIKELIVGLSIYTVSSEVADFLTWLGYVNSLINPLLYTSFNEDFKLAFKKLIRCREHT
The target of the next test is HTR5A (Homo sapiens, UniProt P47898). As to the kind of experiment: GPCR panel (control), Arrestin, U2OS. Type of test: cell-based. To be noted: reference agonist.
Chain of HTR5A (P47898 whole entry): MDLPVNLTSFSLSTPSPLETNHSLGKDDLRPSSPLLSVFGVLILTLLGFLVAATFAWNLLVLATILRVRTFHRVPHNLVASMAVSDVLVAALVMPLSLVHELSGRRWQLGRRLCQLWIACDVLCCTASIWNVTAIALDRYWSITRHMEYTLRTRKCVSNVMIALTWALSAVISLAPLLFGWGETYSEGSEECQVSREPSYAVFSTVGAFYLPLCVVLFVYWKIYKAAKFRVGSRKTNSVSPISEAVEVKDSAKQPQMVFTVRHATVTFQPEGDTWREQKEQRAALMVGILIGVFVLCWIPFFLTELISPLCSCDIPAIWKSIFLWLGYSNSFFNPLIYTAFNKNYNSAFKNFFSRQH
Another test addresses HTR2A (Homo sapiens, UniProt P28223). The conditions noted are these: reference agonist, U2OS, Arrestin.
Another test has as its target HTR1B (Homo sapiens, UniProt P28222). As to the kind of experiment: GPCR panel (control), Arrestin, U2OS. The conditions noted are these: reference agonist. Type of test: cell-based.
For a further test, the target named is HTR1F (Homo sapiens, UniProt P30939). In words: GPCR panel (control), Arrestin, U2OS. The format is cell-based. To be noted: reference agonist.
Chain of HTR1F (P30939 whole entry, the tested form may be a part): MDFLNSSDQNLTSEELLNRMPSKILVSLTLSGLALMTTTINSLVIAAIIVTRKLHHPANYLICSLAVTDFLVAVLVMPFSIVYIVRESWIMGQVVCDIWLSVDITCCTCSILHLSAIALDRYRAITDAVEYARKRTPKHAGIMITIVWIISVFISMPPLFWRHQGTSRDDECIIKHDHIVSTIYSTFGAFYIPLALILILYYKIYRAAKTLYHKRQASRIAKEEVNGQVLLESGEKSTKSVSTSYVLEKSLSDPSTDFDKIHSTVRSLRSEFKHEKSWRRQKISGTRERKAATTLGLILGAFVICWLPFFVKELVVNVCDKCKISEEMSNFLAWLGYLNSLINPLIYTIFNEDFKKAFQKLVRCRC
The target in test [2] is MRGPRX2 in the calcium mobilization assays of the small CXCL14 fragments and mutants (human) (UniProt Q96LB1).
Test [3] deals with MRGPRX2 fused to ProLink (PK), in CHO β-arrestin cells (human) (UniProt Q96LB1).
Test [4] has as its target MRGPRX2 in the calcium mobilization assays of the small CXCL14 fragments and mutants (human) (UniProt Q96LB1). This is another data set of the same source.
The target of test [5] is MRGPRX2 fused to ProLink (PK), in CHO β-arrestin cells (human) (UniProt Q96LB1). The source holds these as a separate data set.
Test [6] addresses T1, mouse MRGPRB2 in 1321N1 astrocytoma cells (mouse) (UniProt Q3KNA1).
T1 sequence: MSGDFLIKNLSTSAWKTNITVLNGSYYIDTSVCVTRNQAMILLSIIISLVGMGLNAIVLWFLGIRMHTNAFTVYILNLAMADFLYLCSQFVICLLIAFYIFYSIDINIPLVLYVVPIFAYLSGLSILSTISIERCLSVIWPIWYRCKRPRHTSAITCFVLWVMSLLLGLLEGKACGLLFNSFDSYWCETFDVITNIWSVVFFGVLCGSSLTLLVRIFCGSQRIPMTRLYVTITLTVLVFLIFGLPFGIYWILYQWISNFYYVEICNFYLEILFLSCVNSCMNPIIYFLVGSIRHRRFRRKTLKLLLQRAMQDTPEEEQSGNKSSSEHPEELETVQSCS

In test [7] the target is MRGPRX2 fused to ProLink (PK), in CHO β-arrestin cells (human) (UniProt Q96LB1). This is another data set of the same source.
Test [8] concerns the target MRGPRX2 in LN229 glioblastoma cells (human) (UniProt Q96LB1).
In test [9] the target is MRGPRX2 in CHEM-1 cells (human) (UniProt Q96LB1).
Test [10] addresses T1, mouse MRGPRB2 in 1321N1 astrocytoma cells (mouse). The source holds these as a separate data set.
In test [11] the target is T2, MRGPRX2 (Homo sapiens, UniProt Q96LB1).
T2 sequence (Q96LB1 1-330): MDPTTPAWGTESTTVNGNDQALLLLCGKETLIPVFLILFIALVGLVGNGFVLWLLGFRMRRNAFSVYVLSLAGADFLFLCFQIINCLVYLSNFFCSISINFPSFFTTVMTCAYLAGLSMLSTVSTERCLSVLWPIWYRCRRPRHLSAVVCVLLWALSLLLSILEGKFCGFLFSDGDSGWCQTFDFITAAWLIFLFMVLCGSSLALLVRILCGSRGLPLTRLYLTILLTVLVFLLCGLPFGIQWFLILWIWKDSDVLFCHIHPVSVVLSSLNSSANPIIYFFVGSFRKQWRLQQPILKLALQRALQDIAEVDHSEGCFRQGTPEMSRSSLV
As to the kind of experiment: β-arrestin recruitment assay (enzyme complementation), β-arrestin-CHO cells recombinantly expressing MRGPRX2. The conditions noted are these: 90 min incubation, chemiluminescence, means ± SD of 3 to 5 independent experiments in duplicates, read-out: EC50 ± SD, β-arrestin assays. Type of test: cell-based.

In test [12] the target is T2, MRGPRX2. In words: calcium mobilization assay, CHEM-1 cells recombinantly expressing MRGPRX2. To be noted: for pEC50: Fig. 3d. Type of test: cell-based. Also on record: host or cells: CHEM-1 adherent rat hematopoietic cells. The text has this:
To confirm the initial results obtained in the β-arrestin recruitment assays, we established calcium mobilization assays in two different recombinant cell lines, CHEM-1 and LN229 cells, respectively. CHEM-1 cells are adherent rat hematopoietic cells with a high endogenous expression level of the promiscuous Gα15 protein enabling the measuring of calcium signaling of a large variety of GPCRs. […]. Subsequently, we employed recombinant human glioblastoma LN229 cells, a human cell line derived from glioblastoma multiforme tumors. […].
The cell lines CHEM1 and CHEM1-MRGPRX2 are adherent rat cell lines (HTSCHEM-1RTA, HTS058RTA, Merck-Millipore, Darmstadt, Germany); which were cultured under standard cell culture conditions.
A cell-based fluorometric assay was employed for the determination of intracellular calcium release using Fluo-8. Cells were seeded into microtiter plates and incubated under standard cell culture conditions. After 24 h the medium was removed, and the cells were washed with phosphate-buffered saline (PBS). The cells were incubated with loading buffer (40 ml PBS with 2 mM Ca^2+, 800 µl of brilliant black solution (2%), 732 µl of probenecid solution (0.5 M) in 1 N NaOH, 400 µL of pluronic (10%) in water, and 152 µl of Fluo-8 (5.7 ng/ml in water)) for 30 min. For fluorescence readout and compound testing a FLIPR tetra system was used according to the manufacture’s protocol (Molecular Devices, CA 94089- 1136, USA).

In test [13] the target is T2, MRGPRX2. As to the kind of experiment: calcium mobilization assay, LN229 cells recombinantly expressing MRGPRX2. Type of test: cell-based. To be noted: Fluo-4, means ± SD of 3 to 4 independent experiments in duplicates, read-out: EC50 ± SD, calcium mobilization assays. Here is the method: LN229 glioblastoma cells ATCC®, CRL-2611TM, were a kind gift from Prof. Dr. B. Scheffler (University of Bonn, Germany). LN229 cells stably expressing MRGPRX2 were generated by retroviral transfection. Briefly, GP^+envAM-12 packaging cells (LGC Standards GmbH, Wesel, Germany), derived from mouse fibroblasts, were seeded at a density of 1.5 × 10^6 cells per T25-flask in 5 mL of Dulbecco’s Modified Eagle Medium (DMEM, Thermo Fisher Scientific, Waltham, MA, USA), supplemented with 10% fetal calf serum (FCS), 100 U/mL of penicillin (PAN-Biotech) and 100 µg/mL of streptomycin (PAN-Biotech). Packaging cells were transfected with pLXSN-MRGPRX2 and pcDNA3-VSV-G using Lipofectamine 2000 according to the manufacturer’s instructions (Thermo Fisher Scientific, Darmstadt, Germany). The medium was exchanged for DMEM supplemented with 10% FCS, 100 U/mL of penicillin, 100 µg/mL of streptomycin and 3 mM of sodium butyrate (stock solution: 500 mM in water, sterile-filtered) to enhance virus production. To produce retroviral particles, cells were cultivated for 48 h at 32°C and 5% CO2. On day 4, the target cells LN229 were seeded into T25 cell culture flasks (5 × 10^5 cell). […]
(§1) […]. […] For the determination of baseline fluorescence, HBSS buffer without additives was used. […]

A further test concerns the target T3, MRGPRB2 (Mus musculus, UniProt Q3KNA1).
T3 construct: expressed in transfected cells; host or cells: 1321N1 astrocytoma cells (lentiviral, pLVX MRGPRB2-IRES-mCherry)
T3 sequence (Q3KNA1 1-338): T1 sequence
As to the kind of experiment: calcium mobilization assay, 1321N1 astrocytoma cells stably expressing MRGPRB2. The format is cell-based. The method, then:
1321N1 Astrocytoma cells were purchased from Sigma Aldrich-Merck KGaA (Darmstadt, Germany, 86030402). The cells were transfected with MRGPRB2 using lentiviral transfection. 1.5 × 10^6 Lenti-X 293 T cells were seeded into each T25 cell culture flask in 5 mL of DMEM, supplemented with 10% FCS, 100 U/mL of penicillin and 100 µg/mL of streptomycin. After 20 h of incubation at 37°C and 5% CO2, when the cells were grown to 80–90% confluence, the medium was exchanged for 5 mL DMEM with 10% FCS without antibiotics and incubated for 4 h. Subsequently, transfection took place using Xfect polymer according to the manufacturer’s protocol (Clontech, Takara Bio Europe, France). The pLVX MRGPRB2-IRES-mCherry-Xfect mixture was added to the packaging cells and they were incubated overnight. […] To know how many astrocytoma cells expressed the target receptor, cells were analyzed under the fluorescence microscope at the m-cherry excitation wavelength of 587 nm using its emission wavelength of 610 nm. Subsequently, fluorescent single clones were isolated by fluorescence-activated cell sorting.
as §1

Chain of HTR1B (P28222 whole entry): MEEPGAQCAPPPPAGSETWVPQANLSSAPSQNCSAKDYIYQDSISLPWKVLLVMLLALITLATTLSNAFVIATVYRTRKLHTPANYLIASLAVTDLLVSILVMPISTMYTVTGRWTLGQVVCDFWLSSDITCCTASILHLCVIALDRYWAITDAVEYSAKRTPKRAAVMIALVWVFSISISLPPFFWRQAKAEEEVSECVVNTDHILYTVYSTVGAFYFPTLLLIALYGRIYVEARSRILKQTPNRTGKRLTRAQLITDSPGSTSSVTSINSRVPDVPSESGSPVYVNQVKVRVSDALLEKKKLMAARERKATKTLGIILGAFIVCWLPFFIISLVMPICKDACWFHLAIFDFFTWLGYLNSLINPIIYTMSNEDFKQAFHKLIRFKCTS
Chain of HTR2A (P28223 whole entry): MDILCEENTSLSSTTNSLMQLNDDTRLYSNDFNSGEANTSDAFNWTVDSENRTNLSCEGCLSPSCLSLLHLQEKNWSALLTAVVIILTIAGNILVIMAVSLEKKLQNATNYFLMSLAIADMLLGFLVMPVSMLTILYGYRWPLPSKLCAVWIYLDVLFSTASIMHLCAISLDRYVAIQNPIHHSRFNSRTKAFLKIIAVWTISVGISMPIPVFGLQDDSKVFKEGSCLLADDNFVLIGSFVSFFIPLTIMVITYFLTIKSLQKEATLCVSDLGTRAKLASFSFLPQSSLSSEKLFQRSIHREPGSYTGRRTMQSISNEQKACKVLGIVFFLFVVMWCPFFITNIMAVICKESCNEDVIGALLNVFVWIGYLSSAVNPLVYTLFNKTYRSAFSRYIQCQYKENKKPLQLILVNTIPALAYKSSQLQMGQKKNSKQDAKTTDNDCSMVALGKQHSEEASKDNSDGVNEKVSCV
Chain of LTB4R (Q15722 whole entry): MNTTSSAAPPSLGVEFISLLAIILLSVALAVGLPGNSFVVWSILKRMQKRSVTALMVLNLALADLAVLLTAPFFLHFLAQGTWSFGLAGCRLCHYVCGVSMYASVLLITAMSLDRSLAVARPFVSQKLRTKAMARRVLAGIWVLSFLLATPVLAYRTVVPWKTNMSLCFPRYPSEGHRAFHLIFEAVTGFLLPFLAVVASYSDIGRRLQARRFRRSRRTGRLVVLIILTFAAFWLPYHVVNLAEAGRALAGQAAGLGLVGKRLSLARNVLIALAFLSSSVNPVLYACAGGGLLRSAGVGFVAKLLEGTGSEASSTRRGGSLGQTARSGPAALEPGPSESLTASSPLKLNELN

As for `CCCCC/C=C\C[C@@H](O)/C=C/C=C/C=C\[C@@H](O)CCCC(=O)O` [Leukotriene B4], the “EC80” value at LTB4R worked out at 5000 nM. This counts as single-digit micromolar.

As to “CXCL4: chemokine, also known as platelet factor 4”, in the test with MRGPRX2 [1], the EC50 was 9000 nM.

In the case of `NCCc1c[nH]c2ccc(O)cc12` [Serotonin], the “EC80” value was 1300 nM at HTR1E; 630 nM at HTR5A; 7100 nM at HTR2A; 7700 nM on HTR1B; 6600 nM on HTR1F.

B1: CXCL14(57-65) (peptide)
peptide: STKRFIKWY
Regarding B1, the EC50, calcium mobilization at MRGPRX2 in test [2] is 301 nM. This molecule had an EC50, β-arrestin recruitment at MRGPRX2 in test [3] of 1960 nM. For the same molecule, the Emax, calcium mobilization at MRGPRX2, normalized to the maximal effect of CXCL14 in [4] was 170%. In test [5], this molecule had an Emax, β-arrestin recruitment at MRGPRX2, normalized to the maximal effect of CXCL14 of 195%.

B2: CXC motif chemokine 14 (CXCL14) (ligand)
chain: SKCKCSRKGPKIRYSDVKKLEMKPKYPHCEEKMVIITTKSVSRYRGQEHCLHPKLQSTKRFIKWYNAWNEKRRVYEE
For B2, the EC50, calcium mobilization, 1321N1 astrocytoma cells stably expressing MRGPRB2 (no response in non-transfected cells) in test [6] came to 972 nM. Further, the EC50, β-arrestin recruitment, β-arrestin-CHO cells recombinantly expressing MRGPRX2 in test [7] was 905 nM. Moreover, the EC50, calcium mobilization, LN229 cells recombinantly expressing MRGPRX2 (no activation in non-transfected LN229 cells) in [8] was determined as 504 nM. For the same molecule, the EC50, calcium mobilization, CHEM-1 cells recombinantly expressing MRGPRX2 (no response in the parental CHEM1 cell line) in test [9] turned out to be 889 nM. Moreover, the EC50, activation of MRGPRB2 as repeated in the discussion in test [10] came out at 923 nM.

B3: CXCL14: mature 77-amino acid chemokine, 9.4 kDa, also known as BRAK; purchased from BIOZOL (protein)
chain: B2 chain
modifications: two disulfide bonds (native chemokine fold); entity numbering = mature + 1
In the case of B3, the EC50 stood at 905 ± 548 nM with MRGPRX2 [11]; 889 nM with MRGPRX2 [12] (CHEM-1 cells recombinantly expressing MRGPRX2, Fluo-8, FLIPR, read-out: EC50, calcium mobilization assays); 504 nM with MRGPRX2 [13]. For the same molecule, the pEC50 with MRGPRX2 [12] (replicate column 1) turned out to be 5.955; with MRGPRX2 [12] (replicate column 2) it was 6.033; in the test with MRGPRX2 [12] (replicate column 3) it was 6.061; with MRGPRX2 [12] (replicate column 4), 6.051. Further, the “pEC50 MRGPRB2” value with MRGPRB2 (Fig. 6c source data, mean, SD and N in columns beside it (N = 2-3)) was 6.032. The “Mean of MRGPRB2 (pEC50)” value with MRGPRB2 (Fig. 6c, mean as listed in the unpaired t test with Welch correction, MRGPRX2 vs. MRGPRB2) worked out at 6.03.
